The text below walks through data of PMC4751646, “Red Sea Atlantis II brine pool nitrilase with unique thermostability profile and heavy metal tolerance” (BMC Biotechnology, 2016).

The test system of this data set is N#CCCC#N. As to the kind of experiment: purified protein. Type of data set: biochemical, uncultured Burkholderiaceae bacterium. The settings on record: 50 mM potassium phosphate pH 7.0, 40 °C, 2 mM DTT, 0-975 mM substrate.

A word on the Km: it is the concentration of substrate that gives half-maximal velocity. What is called kcat is the number of substrate molecules converted per active site and unit of time at saturation.

Consider “NitraS-ATII (uncultured Burkholderiaceae bacterium)”, for which the Km was determined as 59.4 ± 6.8 mM and the kcat was determined as 0.472 s⁻¹.
